From patent publication US20050287132A1, “Biliverdin reductase fragments and variants, and methods of using biliverdin reductase and such fragments and variants” (University of Rochester, priority 1999, published 2005)
Numbering of substitutions follows the chain as printed.

What was measured:
PKC = assay: Effect of BVR and peptides on PKC activity (MBP substrate, kinetic analysis); format: biochemical; settings: for Vmax of the PKC reaction with respect to ATP / Vmax of the PKC reaction with respect to MBP: in the presence of 50 μM BVR or peptide; for Km for the substrate (MBP) of the PKC reaction: in the presence of 50 μM peptide; for nature of kinetics with respect to substrate concentration: MBP varied
Method: FIGS. 11A-C are graphs depicting the role of BVR in increasing protein kinase C activity. FIG. 11A depicts the dose-dependence of PKC activity in the presence of BVR or PKC inhibitor peptide (“PKCI”) in an assay system containing 0.5 μg/ml PKC, 50 μM unlabeled ATP, 5 μCi[^32γP]-ATP and 1 mg/ml MBP and carried out as described infra. FIGS. 11B-C are the kinetic analyses of PKC activity carried out with respect to MBP (FIG. 11B) and with respect to ATP (FIG. 11C) in the presence or absence of 50 μM BVR.
FIGS. 12A-C are graphs illustrating the effect of various rBVR fragments on PKC activity. Protein kinase C was incubated at 30° C. with buffer or with the indicated peptides (50 μM) for 15 min prior to addition to a kinase assay using MBP as substrate. FIG. 12A depicts the relative activity for each sample normalizing to that of the PKC and buffer control value. FIGS. 12B-C are the kinetic analyses of PKC with respect to substrate MBP (FIG. 12B) and ATP (FIG. 12C) in the presence or absence of BVR peptide fragments (50 μM). BVR1 peptide corresponds to SEQ. ID. No. 34 and BVR2 peptide corresponds to SEQ. ID. No. 19.
Incubation time was 8 min at 30° C.

[1] = target: protein kinase C (a mixture containing equal amounts of isozymes α, β and γ) (Promega); assay: cell-based or functional assay
[2] = Biliverdin reductase activity of E. coli expressed hBVR wild type and mutants (Example 1); format: biochemical, human; settings: for Activity (nmol bilirubin/min/mg) pH 6.7 + NADH: pH 6.7, NADH cofactor; for Activity (nmol bilirubin/min/mg) pH 6.7 + NADH / Activity (nmol bilirubin/min/mg) pH 8.7 + NADPH: 25°; for Activity (nmol bilirubin/min/mg) pH 8.7 + NADPH: pH 8.7, NADPH cofactor; for Activity % pH 6.7 + NADH / Activity % pH 8.7 + NADPH: Cys→Ala mutations; for Activity % pH 6.7 + NADH: wild type = 100, pH 6.7, NADH; for Activity % pH 8.7 + NADPH: wild type = 100, pH 8.7, NADPH
Method: SalI linkers are underlined in each primer. The products were digested with SalI and cloned into the vector pGEX 4T-2. Orientation was determined by restriction analysis and confirmed by sequencing. The ligation places the BVR coding region in frame with the GST protein of the vector. GST-BVR fusion proteins were purified from bacterial clones containing the plasmid, and grown overnight using a glutathione-sepharose 4B column (Pharmacia). The reductase portion of the fusion protein was released by thrombin protease treatment.
Activity was determined as previously described (Kutty et al., J. Biol. Chem. 256:3956-3962 (1981); Huang et al., J. Biol. Chem. 264:7844-7849 (1989), which are hereby incorporated by reference). Activity was determined in a 1 ml assay volume that contained 0.1 M Tris/HCl, pH 8.7 NADPH (100 μM), and biliverdin (5 μM). Reductase activity was also measured using NADH (1 mM) as the cofactor; in this case 0.1 M potassium phosphate pH 6.75, was substituted for Tris/HCl. SDS/PAGE was performed by the method of Laemmli, Nature 227:680-685 (1970), which is hereby incorporated by reference. Western blot analysis was performed using anti-serum to human kidney biliverdin reductase as previously described (Maines et al., Arch. Biochem. Biophys. 300:320-326 (1993), which is hereby incorporated by reference). The relative amounts of immunoreactive protein were determined by scanning the blot using a laser densitometer and comparing the area under the peak for each mutant with the wild type. The rate of activity was measured as the increase in 450 nm absorbance at 25° C. Specific activity is expressed as nmol bilirubin/min/ mg protein.

[3] = target: protein kinase C (a mixture containing equal amounts of isozymes α, β and γ) (Promega)
[4] = Biliverdin reductase catalytic activity of recombinant wild type and mutant hBVR (Example 2, FIG. 3); format: biochemical, human; settings: pH/cofactor not stated
Method: FIGS. 3A-C are graphs depicting the effects of mutation of Gly^17, Ser^149, and Lys^296 on BVR catalytic activity. Purified preparations of recombinant wild type and mutant BVR with substitution of Gly^17 (FIG. 3A), Ser^149 (FIG. 3B), or Lys^296 (FIG. 3C) with Ala were assessed for BVR activity at pH 6.5 using NADH as cofactor and at pH 8.7 with NADPH as cofactor. Values presented are in percent wild type activity for each pH. The specific activity of the wild type preparation was 1744 nmol bilirubin produced min^−1 mg^−1 at pH 6.5 and 1147 nmol bilirubin produced min^−1 mg^−1 at pH 8.7. Values presented are representative of 2-4 determinations.
GST-BVR fusion proteins were prepared as described in Example 1. Human kidney biliverdin reductase was purified to homogeneity as described by Maines et al., Arch. Biochem. Biophys. 300:320-326 (1993), which is hereby incorporated by reference. The purified reductase preparations were judged to be homogenous by SDS-PAGE. Protein concentration was determined by the method of Bradford, Anal. Biochem. 72:248-254 (1976), which is hereby incorporated by reference.
Activity was determined as previously described by Huang et al., J. Biol. Chem. 264:7844-7849 (1989), which is hereby incorporated by reference, using NADPH as the cofactor at pH 8.7 in 0.1 M […] or NADH at pH 6.5 in […]. The rate of activity was measured as the increase in 450 nm absorbance at 25° C. Specific activity is expressed in units/mg protein, where 1 unit catalyzes the formation of 1 nmol bilirubin/min.

In the case of “RKRCLRRL [PKCI peptide, ID; No. 29, reference compound]”, the “dose dependence of PKC activity (^32P into MBP)” value (PKC; PKC preincubated 15 min at 30° C., MBP substrate) is reported as “dose-dependent inhibition of activity” and the “inhibition of PKC activity” value (PKC; peptide 50 μM, MBP substrate) is reported as 90%.

With QKLCHQKK [peptide 2, ID; No. 19] the “Vmax of the PKC reaction with respect to ATP” value (PKC) was 3.12 pmol/min, the “Vmax of the PKC reaction with respect to MBP” value (PKC) was 1.82 pmol/min and the “Km for the substrate (MBP) of the PKC reaction” value (PKC) was 0.12 mg/mL. For the same molecule, the “inhibition of PKC activity” value (PKC; peptide 50 μM, MBP substrate) was “more than 75%” and the “nature of kinetics with respect to substrate concentration” value (PKC; peptide 50 μM) was “uncompetitive”.

In the case of KKRIMHC [peptide 1, ID; No. 18], the “Vmax of the PKC reaction with respect to ATP” value (PKC) is reported as 4.2 pmol/min, the “Vmax of the PKC reaction with respect to MBP” value (PKC) is reported as 2.92 pmol/min and the “Km for the substrate (MBP) of the PKC reaction” value (PKC) is reported as 0.39 mg/mL. For the same molecule, the “effect on PKC activity” value (PKC; peptide 50 μM, MBP substrate) was “stimulated PKC activity” and the “nature of kinetics with respect to substrate concentration” value (PKC; peptide 50 μM) was “mixed kinetics”.

With QKLCHQKK [BVR peptide Q288KLCHQKK295 (peptide 2)] the Km of the PKC reaction for the substrate MBP, peptide 50 µM (control 0.165 mg/ml) [1] was 0.12 mg/mL, the Vmax of the PKC reaction with respect to the cofactor ATP, peptide 50 µM (control 3.81 pmol/min) [1] was 3.12 pmol/min and the Vmax of the PKC reaction with respect to the substrate MBP, peptide 50 µM (control 2.25 pmol/min) [1] was 1.82 pmol/min. The inhibition of PKC activity with MBP as substrate, peptide 50 µM [1] was greater than 75%.

B1: Lys^92/His^93: hBVR with Lys^92His^93→Ala-Ala within the oxidoreductase motif (protein, UniProt P53004 3-296, looked up, variant K92A H93A)
Biliverdin reductase A: AEPERKFGVVVVGVGRAGSVRMRDLRNPHPSSAFLNLIGFVSRRELGSIDGVQQISLEDALSSQEVEVAYICSESSSHEDYIRQFLNAGAAVLVEYPMTLSLAAAQELWELAEQKGKVLHEEHVELLMEEFAFLKKEVVGKDLLKGSLLFTAGPLEEERFGFPAFSGISRLTWLVSLFGELSLVSATLEERKEDQYMKMTVCLETEKKSPLSWIEEKGPGLKRNRYLSFHFKSGSLENVPNVGVNKNIFLKDQNIFVQKLLGQFSEKELAAEKKRILHCLGLAEEIQKYCCSRK
With B1 the “Activity (nmol bilirubin/min/mg) pH 6.7 + NADH” value [2] was 0 nmol bilirubin/min/mg, the “reductase activity relative to the control (wild type)” value ([2]; pH 6.7 with NADH) was “loss of enzyme activity” and the “Activity (nmol bilirubin/min/mg) pH 8.7 + NADPH” value [2] was 0 nmol bilirubin/min/mg. The “reductase activity relative to the control (wild type)” value ([2]; pH 8.7 with NADPH) was “loss of enzyme activity”.

B2: Cys^292^,^293: hBVR construct with Cys^292+Cys^293→Ala mutations (protein, UniProt P53004 3-296, looked up, variant C292A C293A)
Biliverdin reductase A: B1 Biliverdin reductase A with A90K, A91H, C290A, C291A
In the case of B2, the “Activity % pH 6.7 + NADH” value [2] is reported as 94% and the “Activity % pH 8.7 + NADPH” value [2] is reported as 100%.

B3: Cys^74: hBVR with Cys^74→Ala within a substrate binding domain (protein, UniProt P53004 3-296, looked up, variant C74A)
Biliverdin reductase A: B1 Biliverdin reductase A with C72A, A90K, A91H
In the case of B3, the “Activity % pH 6.7 + NADH” value [2] is reported as 44% and the “Activity % pH 8.7 + NADPH” value [2] is reported as 45%.

B4: Cys^74,204^,^281,292,293: hBVR construct with all 5 Cys residues combined changed to Ala (protein, UniProt P53004 3-296, looked up, variant C74A C204A C281A C292A C293A)
Biliverdin reductase A: B1 Biliverdin reductase A with C72A, A90K, A91H, C202A, C279A, C290A, C291A
In the case of B4, the “Activity % pH 6.7 + NADH” value [2] is reported as 1% and the “Activity % pH 8.7 + NADPH” value [2] is reported as 10%.

B5: Cys^281: hBVR with Cys^281→Ala within the zinc finger domain (protein, UniProt P53004 3-296, looked up, variant C281A)
Biliverdin reductase A: B1 Biliverdin reductase A with A90K, A91H, C279A
With B5 the “Activity % pH 6.7 + NADH” value [2] was 31% and the “Activity % pH 8.7 + NADPH” value [2] was 23%.

B6: rat biliverdin reductase as used in the PKC activity assays (protein)
chain: AEPKRKFGVVVVGVGRAGSVRLRDLKDPRSAAFLNLIGFVSRRELGSLDEVRQISLEDALRSQEIDVAYICSESSSHEDYIRQFLQAGKHVLVEYPMTLSFAAAQELWELAAQKGRVLHEEHVELLMEEFEFLRREVLGKELLKGSLRFTASPLEEERFGFPAFSGISRLTWLVSLFGELSLISATLEERKEDQYMKMTVQLETQNKGLLSWIEEKGPGLKRNRYVNFQFTSGSLEEVPSVGVNKNIFLKDQDIFVQKLLDQVSAEDLAAEKKRIMHCLGLASDIQKLCHQKK
With B6 the “Km of the PKC reaction for the substrate MBP, upon addition of BVR” value [3] was “substrate Km increasing from 0.145 to 0.16 upon addition of BVR to the reaction”, the “PKC activity, incorporation of 32P into MBP, after 15 min preincubation of PKC with varying concentrations of BVR” value [3] was “incorporation of ^32P into MBP was increased in a dose-dependent manner in the presence of BVR” and the “Vmax of the PKC reaction with respect to ATP, in the presence of 50 µM BVR” value [3] was “increased from 3.3 to 4.9 and 1.7 to 2.9 pmol/min, respectively”. The “Vmax of the PKC reaction with respect to MBP, in the presence of 50 µM BVR” value [3] was “increased from 3.3 to 4.9 and 1.7 to 2.9 pmol/min, respectively”.

RKRCLRRL [PKC inhibitor peptide RKRCLRRL] showed an inhibition of PKC activity, peptide at the same concentration as BVR peptide 2 [1] of 90%.

Work on KKRIMHC [BVR peptide K274KRIMHC280 (peptide 1)] yielded a Km of the PKC reaction for the substrate MBP, peptide 50 µM (control 0.165 mg/ml) [1] of 0.39 mg/mL, a Vmax of the PKC reaction with respect to the cofactor ATP, peptide 50 µM (control 3.81 pmol/min) [1] of 4.2 pmol/min and a Vmax of the PKC reaction with respect to the substrate MBP, peptide 50 µM (control 2.25 pmol/min) [1] of 2.92 pmol/min.

B7: Ser^44: hBVR SEQ. ID. No. 1 with Ser^44→Ala within one of the kinase motifs (protein, listed as Homo sapiens)
chain: MNAEPERKFGVVVVGVGRAGSVRMRDLRNPHPSSAFLNLIGFVARRELGSIDGVQQISLEDALSSQEVEVAYICSESSSHEDYIRQFLNAGKHVLVEYPMTLSLAAAQELWELAEQKGKVLHEEHVELLMEEFAFLKKEVVGKDLLKGSLLFTSDPLEEDRFGFPAFSGISRLTWLVSLFGELSLVSATLEERKEDQYMKMTVCLETEKKSPLSWIEEKGPGLKRNRYLSFHFKSGSLENVPNVGVNKNIFLKDQNIFVQKLLGQFSEKELAAEKKRILHCLGLAEEIQKYCCSRK
In the case of B7, the “Activity (nmol bilirubin/min/mg) pH 6.7 + NADH” value [2] is reported as 7443 nmol bilirubin/min/mg, the “increase in activity at pH 6.7 with NADH” value ([2]; pH 6.7, NADH, versus wild type) is reported as 2.5 fold and the “Activity (nmol bilirubin/min/mg) pH 8.7 + NADPH” value [2] is reported as 333 nmol bilirubin/min/mg. The “reduction in NADPH-dependent activity” value ([2]; pH 8.7, NADPH, versus wild type) was 70-75% and the enzyme activity [4] was “did not display loss of enzyme activity”.
